For this assay, the target named is T1, full length human PSGL-1 (SEQ ID NO: 3) expressed on heparan sulfate-mutant CHO cells (human, UniProt Q14242 42-412).
T1 construct: also called CHO-PSGL-1 cells
T1 sequence: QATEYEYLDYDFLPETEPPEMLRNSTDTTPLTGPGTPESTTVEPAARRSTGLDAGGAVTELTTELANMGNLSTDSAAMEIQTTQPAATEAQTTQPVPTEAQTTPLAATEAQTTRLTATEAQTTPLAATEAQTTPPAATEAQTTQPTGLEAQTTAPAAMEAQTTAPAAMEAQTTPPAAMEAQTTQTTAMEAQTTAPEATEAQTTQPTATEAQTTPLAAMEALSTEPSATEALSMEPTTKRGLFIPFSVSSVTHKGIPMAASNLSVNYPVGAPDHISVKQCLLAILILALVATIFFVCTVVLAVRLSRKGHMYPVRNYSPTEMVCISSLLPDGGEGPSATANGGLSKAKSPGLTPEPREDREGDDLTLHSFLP
The experiment in a line: VISTA-Fc binding to CHO-PSGL-1 cells at pH 6.0.

Results on one molecule are retold here after US20250129166A1 (Five Prime, published 2025).

B1: H2R mutant (Fc fusion)
chain: FKVATPYSLYVCPEGQNVTLTCRLLGPVDKGHDVTFYKTWYRSSRGEVQTCSERRPIRNLTFQDLHLHHGGHQAANTSHDLAQRHGLESASDHHGNFSITMRNLTLLDSGLYCCLVVEIRRRRSEHRVHGAMELQVQTGKDAPSNCVVYPSSSQDSENITAA
notes: Produced by transient transfection of Expi293 cells; not shown: human IgG1 Fc part and any linker or tag of the VISTA-Fc construct
As to B1, the binding result is “binds”.
